Assay results reported in patent US20230241168A1 (ALPINE IMMUNE SCIENCES, published 2023).
No end group written: not given here.

How the values were obtained:
[1] = biological target: T1, recombinant human BAFF (human, UniProt Q9Y275 134-285); assay: told in the description with reference to Example 8 (Jurkat/NF-κB/TACI reporter blockade)
T1 construct: also called human BAFF (BioLegend)

[2] = biological target: T2, recombinant human APRIL (human, UniProt O75888 105-250, limits assumed); assay: as above
T2 construct: also called human APRIL (Tonbo Biosciences)
T2 sequence (looked up): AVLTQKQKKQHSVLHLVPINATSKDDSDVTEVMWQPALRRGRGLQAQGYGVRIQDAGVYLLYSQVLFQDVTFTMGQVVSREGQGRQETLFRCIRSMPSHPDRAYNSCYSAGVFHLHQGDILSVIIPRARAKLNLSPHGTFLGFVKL

B1: 528 TACI CRD2-Fc (Fc fusion, not shown: a dimerising Fc or GST)
chain: SLSCRKEQGKFYDHLLRDCISCASICGQHPKQCAYFCENKLRS
modifications: cysteine pairing not given here; also: Fc fusion, linker and Fc not given here
notes: Fc fusion; also called WT TACI-Fc containing only the CRD2 domain of TACI; TACI 68-110 Fc
[1]
  binding result: binds
[2]
  binding result: binds
